Experimental data as given in patent US20160257732A1 (published 2016).
Read-outs that look alike come from different tables or passages of the source.

Assays:
Experiment in all cases: cell-based or functional assay
[1] = biological target: T1, HA of A/Puerto Rico/8/34 (H1N1) (influenza A virus, UniProt P03452 18-565)
[2] = biological target: HA of ca A/Wuhan/359/95 (H3N2) (influenza A virus)
[3] = biological target: T1, HA of A/Puerto Rico/8/34 (H1N1); remark: listed apart in the source
[4] = biological target: HA of ca A/Wuhan/359/95 (H3N2) (influenza A virus); remark: listed apart in the source
rHK68_I18R H3 HA = rHK68_I18R H3 HA (influenza A virus)
rHK68_D19N H3 HA = rHK68_D19N H3 HA (influenza A virus)
rHK68_D19Y H3 HA = rHK68_D19Y H3 HA (influenza A virus)
rHK68_Q42R H3 HA = rHK68_Q42R H3 HA (influenza A virus)
rHK68_I45N H3 HA = rHK68_I45N H3 HA (influenza A virus)
rHK68_I45T H3 HA = rHK68_I45T H3 HA (influenza A virus)
rHK68_K156Q H3 HA = rHK68_K156Q H3 HA (influenza A virus)
rHK68_A196T H3 HA = rHK68_A196T H3 HA (influenza A virus)

T1 sequence (P03452 18-565 limits assumed): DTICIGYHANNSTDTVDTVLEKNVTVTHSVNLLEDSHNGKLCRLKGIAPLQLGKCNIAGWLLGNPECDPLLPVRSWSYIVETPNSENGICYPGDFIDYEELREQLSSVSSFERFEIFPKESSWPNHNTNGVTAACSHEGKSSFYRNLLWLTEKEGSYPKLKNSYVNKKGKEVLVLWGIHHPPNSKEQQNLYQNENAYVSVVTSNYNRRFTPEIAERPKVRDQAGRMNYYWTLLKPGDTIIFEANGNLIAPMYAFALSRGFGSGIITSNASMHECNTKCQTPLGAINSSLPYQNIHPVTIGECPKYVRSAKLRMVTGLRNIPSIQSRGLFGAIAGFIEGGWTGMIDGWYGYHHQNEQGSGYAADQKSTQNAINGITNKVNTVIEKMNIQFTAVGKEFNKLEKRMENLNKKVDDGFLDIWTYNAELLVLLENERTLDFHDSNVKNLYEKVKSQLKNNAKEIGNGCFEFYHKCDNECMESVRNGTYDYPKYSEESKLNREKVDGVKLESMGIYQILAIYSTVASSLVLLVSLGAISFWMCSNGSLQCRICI

Binder | Neutralization IC50, H1-PR34 [1] [mg/L] | Neutralization IC50, H3-WH95 [2] [mg/L] | Neutralization IC50, H1-PR34 [3] [mg/L] | Neutralization IC50, H1-PR34-OR [3] [mg/L] | Neutralization IC50, H3-WH95 [4] [mg/L] | Neutralization IC50, H3-WH95-OR [4] [mg/L] | also measured
Antibody 3 (antibody, V domains shown) VH: QVQLQESGPGLVKPSQTLSLTCAISGDSVSSNNAVWNWIRQSPSRGLEWLGRTYYRSKWYNDYAESVKSRITVNPDTSKNQFSLHLKSVTPEDTAVFYCVRSGHITVFGVNVDAFDMWGQGTMVTVSS VL: DIQMTQSPSSLSASVGDRVTITCRTSQSLSSYLHWYQQKPGKAPKLLIYAASSLQSGVPSRFSGSGSGTDFTLTISSLQPEDFATYYCQQSRTFGQGTKVEIK | 1.07 | 3.96 | 2.17 | 1.39 | 5.63 | 7.7 | 
Antibody 14 (antibody, V domains shown) VH: QVQLQQSGPGLVKPSQTLSLTCAISGDSVSSNNAVWNWIRQSPSRGLEWLGRTYYRSKWYNDYAESVKSRITINPDTSKNQFSLQLNSVTPEDTAVYYCARSGHITVFGVNVDAFDMWGQGTTVTVSS VL: DIQMTQSPSSLSASVGDRVTITCRTSQSLSSYTHWYQQKPGKAPKLLIYAASSRLSGVPSRFSGSGSGTDFTLTISSLQPEDFATYYCQQSRTFGQGTKVEIK |  |  | 1.25 | 0.83 | 2.77 | 3.09 | 
Antibody 13 (antibody, V domains shown) VH: QVQLQQSGPGLVKPSQTLSLTCAISGDSVSSYNAVWNWIRQSPSRGLEWLGRTYYRSGWYNDYAESVKSRITINPDTSKNQFSLQLNSVTPEDTAVYYCARSGHITVFGVNVDAFDMWGQGTMVTVSS VL: DIQMTQSPSSLSASVGDRVTITCRTSQSLSSYDHWYQQKPGKAPKLLIYAASSRLSGVPSRFSGSGSGTDFTLTISSLQPEDFATYYCQQSRTFGQGTKVEIK |  |  | 1.3 | 0.88 | 2.77 | 3.01 | 
Antibody 11 (antibody, V domains shown) VH: QVQLQQSGPGLVKPSQTLSLTCAISGDSVSSYNAVWNWIRQSPSRGLEWLGRTYYRSGWYNDYAESVKSRITINPDTSKNQFSLQLNSVTPEDTAVYYCARSGHITVFGVNVDAFDMWGQGTMVTVSS VL: DIQMTQSPSSLSASVGDRVTITCRTSQSLSSYTHWYQQKPGKAPKLLIYAASSRLSGVPSRFSGSGSGTDFTLTISSLQPEDFATYYCQQSRTFGQGTKVEIK |  |  | 0.88 | 0.73 | 2.45 | 2.26 | 
Antibody 15 (antibody, V domains shown) VH: QVQLQQSGPGLVKPSQTLSLTCAISGDSVSSNNAVWNWIRQSPSRGLEWLGRTYYRSKWYNDYAESVKSRITINPDTSKNQFSLQLNSVTPEDTAVYYCARSGHITVFGVNVDAFDMWGQGTTVTVSS VL: DIQMTQSPSSLSASVGDRVTITCRTSQSLSSYTHWYQQKPGKAPKLLIYAASSRGSGVPSRFSGSGSGTDFTLTISSLQPEDFATYYCQQSRTFGQGTKVEIK |  |  | 1.47 | 0.9 | 3.32 | 3.48 | 
Antibody 12 (antibody, V domains shown) VH: QVQLQQSGPGLVKPSQTLSLTCAISGDSVSSYNAVWNWIRQSPSRGLEWLGRTYYRSGWYNDYAESVKSRITINPDTSKNQFSLQLNSVTPEDTAVYYCARSGHITVFGVNVDAFDMWGQGTMVTVSS VL: DIQMTQSPSSLSASVGDRVTITCRTSQSLSSYTHWYQQKPGKAPKLLIYAASSRGSGVPSRFSGSGSGTDFTLTISSLQPEDFATYYCQQSRTFGQGTKVEIK |  |  | 1.07 | 0.69 | 2.09 | 2.34 | Avg. Neut., microneutralization (rHK68_I18R H3 HA): > 200 µg/mL; Avg. Neut., microneutralization (rHK68_D19N H3 HA): 3.04 µg/mL; Avg. Neut., microneutralization (rHK68_D19Y H3 HA): > 200 µg/mL; Avg. Neut., microneutralization (rHK68_Q42R H3 HA): 11.1 µg/mL; Avg. Neut., microneutralization (rHK68_I45N H3 HA): 1.94 µg/mL; Avg. Neut., microneutralization (rHK68_I45T H3 HA): 3.38 µg/mL; Avg. Neut., microneutralization (rHK68_K156Q H3 HA): 3.33 µg/mL; Avg. Neut., microneutralization (rHK68_A196T H3 HA): 4.06 µg/mL
Antibody 10 (antibody, V domains shown) VH: QVQLQQSGPGLVKPSQTLSLTCAISGDSVSSNSATWNWIRQSPSRGLEWLGRTYYRSKWYNDYADFLKRRITINPDTSNNEVSLRLTSVTPDDTALYYCARGGHITVFGVNIDAFDVWGQGTMVTVSS VL: DIQMTQSPSSLSASVGDRITISCRTSQSLRSYLHWYQQKPGKAPKLLIYASSTLQSGVPSRFSGSGSGTDFTLTISNLQPEDFATYYCQLSRTFGQGTKVEIK | 2.15 | 8.7 |  |  |  |  | 
Antibody 8 (antibody, V domains shown) VH: QVQLQQSGPGLVKPSQTLSLTCVISGDTVSSNRATWNWMRQSPLRGLEWLGRTYYRSKWYNDYAVSVKSRVVINPDTSKNQVSLQLNTVTPDDSGVYFCARGGHITVFGVNIDAFDIWGLGTKVTVSS VL: DIQMTQSPSSLSASVGDRVTISCRASQRLNSYLHWYQQTPGQAPKLLIYATSTLQSGVSPRFSGSGSGTDFTLTISSLQPEDVATYYCQLSRTFGHGTKVEIK | 3.02 | > 50 |  |  |  |  | 
Antibody 5 (antibody, V domains shown) VH: QVQLQQSGPGLVKPSQTLSLTCAISGDRVSSNSAVWNWIRQSPSRGLEWLGRTYYRSKWYYDYAESVKSRIVIDPDTSKNQVSLQLNSVTPEDSAIYYCARGGHITVFGLNIDAYDIWGQGAMVTVSS VL: DIQMTQSPSSLSASVGDRVTISCRAQSLSSYLHWYQQKPGQPPKLLIYAATTLQSGVPSRFSGSGSGTDFTLTISTFQAEDVATYYCQQSRTFGQGTKVEIK | 1.13 | 3.72 |  |  |  |  | 
Antibody 6 (antibody, V domains shown) VH: QVQLQQSGPGLVKPSQTLSLTCAISGDRVSSNSAVWNWIRQSPSRGLEWLGRTYYRSKWYYDYAESVKSRIVIDPDTSKNQVSLQLNSVTPEDSAIYYCARGGHITEFGLNIDAYDIWGQGAMVTVSS VL: DIQMTQSPSSLSASVGDRVTISCRAQSLSSYLHWYQQKPGQPPKLLIYAATTLQSGVPSRFSGSGSGTDFTLTISTFQAEDVATYYCQQSRTFGQGTKVEIK | 4.37 | 10.5 |  |  |  |  | 
